Source: PMC2138209

Molecular target: 7S subunit of the lemon shark 19S immunoglobulin (lemon shark, Negaprion brevirostris)
Assay: AUC

Question: “7S subunit of the lemon shark 19S immunoglobulin (complex)” was tested. Which stoichiometry N did it give?
Answer: The stoichiometry N was 5.
